pEC50: −log10 of the molar value.
How the values were obtained:
Format in all cases: cell-based
[1] = molecular target: T1, human GLP-1 receptor (hGLP-1r) (Homo sapiens, UniProt P43220); test: BSA-cAMP assay, cells expressing human GLP-1 receptor; settings: Batch 1; BSA-cAMP assay; read-out: hGLP1r cAMP activity EC50
T1 construct: expressed in transfected cells
Protocol: (§1) One basic cAMP assays was performed, differing in the medium used for the assay, the “BSA-cAMP assay”:
(§2) BSA-based assay medium: 0.1% bovine serum albumin (BSA) in
(§3) In certain aspects, the assay can also be carried out in medium supplemented with serum albumin that corresponds to the receptor being tested, e.g., human serum albumin for testing cAMP activity at hGIPr or hGLP-1r, rat serum albumin for testing cAMP activity at rGIPr or rGLP-1r, and so on. […] All sample dilutions were made in duplicate.
(§4) A frozen cryo-vial of cells expressing the receptor of interest was thawed rapidly in a water-bath, transferred to pre-warmed assay media and spun at 240×g for 5 minutes. Cells were re-suspended in assay buffer at an optimized concentration (e.g., hGLP-1r and hGIPr cells at 0.5×10^5 cells/ml).
(§5) To this, 5 μL cell suspension was added and the plates incubated at room temperature for 30 minutes.
(§6) cAMP levels were measured using a commercially available cAMP dynamic 2 HTRF kit (Cisbio, Cat #62AM4PEJ), following the two step protocol as per manufacturer's recommendations. In brief; anti-cAMP cryptate (donor fluorophore) and cAMP-d2 (acceptor fluorophore) were made up separately by diluting each 1/20 in conjugate & lysis buffer provided in the kit. 5 μL anti-cAMP cryptate was added to all wells of the assay plate, and 5 μL cAMP-d2 added to all wells except non-specific binding (NSB) wells, to which conjugate and lysis buffer was added. […] Data was transformed to % Delta F as described in manufacturer's guidelines and then transformed to percent activation of maximal native agonist response and analysed by 4-parameter logistic fit to determine EC50 values.
(§7) We used unconstrained 4 parameter logistic fit of data, curve mid-point to determine EC50. This was tested on two occasions, not two batches.

[2] = molecular target: T2, human GIP receptor (hGIPr) (Homo sapiens, UniProt P48546); test: BSA-cAMP assay, cells expressing human GIP receptor; settings: Batch 1; BSA-cAMP assay; read-out: hGIPr cAMP activity EC50
T2 construct: expressed in transfected cells
T2 sequence (P48546 22-466): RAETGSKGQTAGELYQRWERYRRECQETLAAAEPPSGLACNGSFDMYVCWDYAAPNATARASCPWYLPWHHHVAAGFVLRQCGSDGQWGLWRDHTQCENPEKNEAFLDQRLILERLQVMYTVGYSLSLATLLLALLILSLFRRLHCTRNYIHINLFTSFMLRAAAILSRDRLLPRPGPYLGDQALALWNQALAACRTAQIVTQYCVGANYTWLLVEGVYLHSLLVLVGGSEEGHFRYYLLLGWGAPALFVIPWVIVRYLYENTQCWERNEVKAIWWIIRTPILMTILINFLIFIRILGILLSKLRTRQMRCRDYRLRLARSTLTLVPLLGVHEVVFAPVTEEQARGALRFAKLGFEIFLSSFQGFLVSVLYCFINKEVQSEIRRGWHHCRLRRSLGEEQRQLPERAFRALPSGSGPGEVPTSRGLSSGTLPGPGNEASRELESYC
Protocol: For human GIPr, two different lines were used, shown as “hGIPr” and “hGIPr (C3)” in Table 11.
as §1, §2, §3, §4, §5, §6, §7

[3] = molecular target: T3, human glucagon receptor (GCGr) (Homo sapiens, UniProt P47871); test: BSA-cAMP assay, cells expressing human glucagon receptor; settings: Batch 1, read-out: hGCGr cAMP activity EC50
T3 construct: expressed in transfected cells; host or cells: HEK293s or CHO cells
T3 sequence (P47871 26-477): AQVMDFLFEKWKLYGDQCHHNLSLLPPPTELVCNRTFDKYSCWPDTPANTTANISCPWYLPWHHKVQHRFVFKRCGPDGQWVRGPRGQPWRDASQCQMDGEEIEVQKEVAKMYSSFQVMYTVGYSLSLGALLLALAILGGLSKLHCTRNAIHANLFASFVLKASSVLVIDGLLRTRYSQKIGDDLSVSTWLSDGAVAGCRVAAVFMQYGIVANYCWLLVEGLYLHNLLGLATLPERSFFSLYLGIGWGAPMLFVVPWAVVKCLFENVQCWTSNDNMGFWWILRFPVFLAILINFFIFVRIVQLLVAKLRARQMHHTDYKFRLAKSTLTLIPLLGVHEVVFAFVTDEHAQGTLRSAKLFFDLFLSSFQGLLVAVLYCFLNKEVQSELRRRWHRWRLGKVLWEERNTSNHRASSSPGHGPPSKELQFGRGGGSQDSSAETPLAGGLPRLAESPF
Protocol: as §1, §2, §3, §4, §5, §6, §7

[4] = molecular target: T4, mouse GLP-1 receptor (mGLP-1r) (Mus musculus, UniProt O35659); test: BSA-cAMP assay, cells expressing mouse GLP-1 receptor; settings: Batch 1; BSA-cAMP assay; read-out: mGLP1r cAMP activity EC50
T4 construct: expressed in transfected cells; host or cells: HEK293s or CHO cells
T4 sequence (O35659 22-463): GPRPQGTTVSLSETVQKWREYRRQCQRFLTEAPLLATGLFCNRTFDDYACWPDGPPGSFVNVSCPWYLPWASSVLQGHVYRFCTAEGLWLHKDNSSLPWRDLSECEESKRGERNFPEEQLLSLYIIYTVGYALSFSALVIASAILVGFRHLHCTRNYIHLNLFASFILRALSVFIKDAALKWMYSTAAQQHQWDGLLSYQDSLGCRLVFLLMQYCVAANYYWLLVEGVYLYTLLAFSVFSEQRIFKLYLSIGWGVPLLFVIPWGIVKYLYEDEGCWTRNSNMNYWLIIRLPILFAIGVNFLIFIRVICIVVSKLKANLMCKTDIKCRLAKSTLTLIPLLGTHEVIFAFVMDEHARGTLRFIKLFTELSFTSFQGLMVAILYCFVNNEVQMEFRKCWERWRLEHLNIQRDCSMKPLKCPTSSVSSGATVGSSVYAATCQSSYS
Protocol: as §1, §2, §3, §4, §5, §6, §7
(§8) In order to be able to carry out in vivo studies in rodents, IP088 was tested for potency against the mouse receptors mGIPr and mGLP-1r as well as the rat receptors rGIPr and rGLP-1r, using cells expressing the respective receptors in the cAMP assay described above.

[5] = molecular target: T5, mouse GIP receptor (mGIPr) (Mus musculus, UniProt Q0P543); test: BSA-cAMP assay, cells expressing mouse GIP receptor; settings: Batch 1; BSA-cAMP assay; read-out: mGIPr cAMP activity EC50
T5 construct: expressed in transfected cells; host or cells: HEK293s or CHO cells
T5 sequence (Q0P543 19-460): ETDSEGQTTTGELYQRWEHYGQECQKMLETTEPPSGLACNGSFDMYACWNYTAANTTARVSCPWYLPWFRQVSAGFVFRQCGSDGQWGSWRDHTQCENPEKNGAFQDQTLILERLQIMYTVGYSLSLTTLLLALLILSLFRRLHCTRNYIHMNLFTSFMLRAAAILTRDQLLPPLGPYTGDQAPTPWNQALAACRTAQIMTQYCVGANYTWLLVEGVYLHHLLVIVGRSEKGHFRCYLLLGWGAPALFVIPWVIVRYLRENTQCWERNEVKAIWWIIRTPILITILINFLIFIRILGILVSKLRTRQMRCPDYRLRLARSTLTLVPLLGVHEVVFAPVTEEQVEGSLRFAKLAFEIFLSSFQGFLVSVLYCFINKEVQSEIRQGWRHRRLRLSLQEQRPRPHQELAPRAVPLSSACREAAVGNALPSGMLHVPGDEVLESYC
Protocol: as §1, §2, §3, §4, §5, §6, §7, §8

[6] = molecular target: T6, rat GLP-1 receptor (rGLP-1r) (Rattus norvegicus, UniProt P32301); test: BSA-cAMP assay, cells expressing rat GLP-1 receptor; settings: Batch 1; BSA-cAMP assay; read-out: rGLP1r cAMP activity EC50
T6 construct: expressed in transfected cells; host or cells: HEK293s or CHO cells
T6 sequence (P32301 22-463): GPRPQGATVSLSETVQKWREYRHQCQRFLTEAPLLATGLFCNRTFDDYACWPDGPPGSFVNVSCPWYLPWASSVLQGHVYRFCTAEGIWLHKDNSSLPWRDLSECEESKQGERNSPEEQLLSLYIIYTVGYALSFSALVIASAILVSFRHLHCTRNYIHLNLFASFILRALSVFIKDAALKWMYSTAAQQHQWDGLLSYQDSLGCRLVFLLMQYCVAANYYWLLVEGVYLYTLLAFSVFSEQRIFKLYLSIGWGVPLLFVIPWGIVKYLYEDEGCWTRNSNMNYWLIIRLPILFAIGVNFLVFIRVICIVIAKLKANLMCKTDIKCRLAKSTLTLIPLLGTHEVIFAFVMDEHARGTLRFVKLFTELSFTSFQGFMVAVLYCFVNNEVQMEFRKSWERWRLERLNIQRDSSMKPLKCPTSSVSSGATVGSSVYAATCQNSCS
Protocol: as §1, §2, §3, §4, §5, §6, §7, §8

rat GIP receptor (rGIPr) = molecular target: T7, rat GIP receptor (rGIPr) (Rattus norvegicus, UniProt P43219); test: BSA-cAMP assay, cells expressing rat GIP receptor; settings: Batch 1; BSA-cAMP assay; read-out: rGIPr cAMP activity EC50
T7 construct: expressed in transfected cells; host or cells: HEK293s or CHO cells
T7 sequence (P43219 19-455): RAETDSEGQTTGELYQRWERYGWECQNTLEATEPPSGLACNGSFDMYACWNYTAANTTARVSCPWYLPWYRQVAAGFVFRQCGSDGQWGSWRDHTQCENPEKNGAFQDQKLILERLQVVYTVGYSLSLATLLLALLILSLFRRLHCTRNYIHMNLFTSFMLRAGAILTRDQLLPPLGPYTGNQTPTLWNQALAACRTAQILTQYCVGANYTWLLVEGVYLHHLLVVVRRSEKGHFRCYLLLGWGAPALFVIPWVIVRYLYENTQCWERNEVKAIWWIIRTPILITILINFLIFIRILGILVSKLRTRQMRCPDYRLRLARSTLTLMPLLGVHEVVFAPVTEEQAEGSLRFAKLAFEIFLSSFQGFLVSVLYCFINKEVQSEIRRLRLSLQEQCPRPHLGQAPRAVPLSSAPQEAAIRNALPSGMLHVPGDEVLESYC
Protocol: as §1, §2, §3, §4, §5, §6, §7, §8

T1 sequence (P43220 24-463): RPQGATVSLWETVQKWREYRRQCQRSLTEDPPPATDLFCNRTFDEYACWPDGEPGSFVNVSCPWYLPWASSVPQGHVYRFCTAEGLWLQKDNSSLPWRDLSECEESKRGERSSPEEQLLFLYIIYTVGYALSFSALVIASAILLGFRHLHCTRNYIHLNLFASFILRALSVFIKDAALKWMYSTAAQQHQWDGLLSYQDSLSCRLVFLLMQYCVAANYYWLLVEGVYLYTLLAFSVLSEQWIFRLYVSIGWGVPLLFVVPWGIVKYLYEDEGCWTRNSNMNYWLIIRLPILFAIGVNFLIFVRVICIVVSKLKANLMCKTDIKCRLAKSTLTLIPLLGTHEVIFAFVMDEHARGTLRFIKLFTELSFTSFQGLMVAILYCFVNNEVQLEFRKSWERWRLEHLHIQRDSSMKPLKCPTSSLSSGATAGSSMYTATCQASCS

pEC50 [1] | pEC50 [2] | pEC50 [3] | pEC50 [4] | pEC50 [5] | pEC50 [6] | pEC50 (rat GIP receptor (rGIPr)) | Substance
< 5.44 | 10.68 | 7.28 | < 5.44 | 6.68 | 7.72 | 9.96 | IP299: Fc fusion, IgG1-TM(ΔK), SEQ ID NO:351; agonist peptide YSEGTFISDYSKLLEEEAVRDFVEWLKAGG (YSEGTFISDYSKLLEEEAVRDFVEWLKAGGGGGGGSGGGGSGGGGSGGGGSATHTCPPC)
7.59 | 10.74 | 5.92 | 7.03 | 10.08 | 8.15 | 10.26 | IP302 (YSEGTFISDYSIALAAAAQQDFVNWLLAGGGGGGGSGGGGSGGGGSGGGGSATHTCPPC)
6.64 | 9.59 | ≤ 5.96 | < 5.95 | 8.49 | 7.33 | 8.77 | IP305: Fc fusion, IgG1-TM(ΔK), SEQ ID NO:430; agonist peptide YSEGTFISDYSIALAAAAVRDFVNWLLAGG (YSEGTFISDYSIALAAAAVRDFVNWLLAGGGGGGGSGGGGSGGGGSGGGGSATHTCPPC)
5.89 | 10.60 | ≤ 5.82 | < 5.82 | 9.77 | 6.15 | 10.05 | IP308 (YSEGTFISDYSIALAAAAAKDFVNWLLAGGGGGGGSGGGGSGGGGSGGGGSATHTCPPC)
6.17 | 10.13 | < 5.62 | 5.82 | 9.02 | 7.21 | 9.37 | IP311 (YSEGTFISDYSIALAAAAIDDFVNWLLAGGGGGGGSGGGGSGGGGSGGGGSATHTCPPC)
< 6.04 | 9.64 | 6.13 | < 6.04 | 7.82 | 6.35 | 9.06 | IP314: Fc fusion, IgG1-TM(ΔK), SEQ ID NO:431; agonist peptide YSEGTFISDYSKLLAAAAVRDFVNWLLAGG (YSEGTFISDYSKLLAAAAVRDFVNWLLAGGGGGGGSGGGGSGGGGSGGGGSATHTCPPC)
≤ 5.35 | 10.30 | ≤ 5.35 | < 5.35 | 7.46 | < 5.35 | 7.85 | IP318: Fc fusion, IgG1-TM(ΔK), SEQ ID NO:432; agonist peptide YSEGTFISDYSIAMDEEAVRDFVEWLKAGG (YSEGTFISDYSIAMDEEAVRDFVEWLKAGGGGGGGSGGGGSGGGGSGGGGSATHTCPPC)
< 5.26 | 11.24 | 6.55 | < 5.56 | 10.70 | < 5.56 | 11.17 | IP335 (YSEGTFISDYSIAMDKIHQQDFVNWLLAQKGGGGGSGGGGSGGGGSGGGGSA)
7.12 | 8.33 | < 5.45 | 6.17 | 7.37 | 7.64 | 8.29 | IP342 (YSEGTFTSDYSAAAEAAAAAAFAAWLAAAAGGGGGSGGGGSGGGGSGGGGSACPPC)
6.02 | 7.14 | < 5.68 | < 5.68 | 6.06 | 6.44 | 6.96 | IP343 (YSEGTFTSDYAAAAERQAIDAFAAWLAAAAGGGGGSGGGGSGGGGSGGGGSA)

— patent publication US20160185837A1 (Medimmune Limited, priority 2013, published 2016)
